Test results: PMC7884425 (2021)

B1: human PARP1-CAT ΔHD (661-678-GSGSGSGG-787-1014) (domain or fragment)
chain: TKSKLPKPVQDLIKMIFDGSGSGSGGKDPIDVNYEKLKTDIKVVDRDSEEAEIIRKYVKNTHATTHNAYDLEVIDIFKIEREGECQRYKPFKQLHNRRLLWHGSRTTNFAGILSQGLRIAPPEAPVTGYMFGKGIYFADMVSKSANYCHTSQGDPIGLILLGEVALGNMYELKHASHISKLPKGKHSVKGLGKTTPDPSANISLDGVDVPLGTGISSGVNDTSLLYNEYIVYDIAQVNLKYLLKLKFNFKTSLW

Experiments:
human HPF1 F280A [1] = molecular target: T1, human HPF1 F280A (human, UniProt Q9NWY4 1-346, F280A); experiment: ITC; replicate 1
T1 sequence: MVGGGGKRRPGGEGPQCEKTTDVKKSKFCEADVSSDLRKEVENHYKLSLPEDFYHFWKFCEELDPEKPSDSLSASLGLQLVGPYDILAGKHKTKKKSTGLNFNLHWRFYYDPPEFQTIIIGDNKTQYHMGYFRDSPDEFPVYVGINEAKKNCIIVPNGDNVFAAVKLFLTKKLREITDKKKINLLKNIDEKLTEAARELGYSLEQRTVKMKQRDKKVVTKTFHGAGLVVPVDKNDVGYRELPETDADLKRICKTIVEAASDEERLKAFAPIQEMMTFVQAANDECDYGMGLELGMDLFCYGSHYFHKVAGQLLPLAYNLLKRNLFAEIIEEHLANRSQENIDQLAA

human HPF1 R239A [2] = molecular target: T2, human HPF1 R239A (human, UniProt Q9NWY4 1-346, R239A); experiment: ITC; replicate 1
T2 sequence: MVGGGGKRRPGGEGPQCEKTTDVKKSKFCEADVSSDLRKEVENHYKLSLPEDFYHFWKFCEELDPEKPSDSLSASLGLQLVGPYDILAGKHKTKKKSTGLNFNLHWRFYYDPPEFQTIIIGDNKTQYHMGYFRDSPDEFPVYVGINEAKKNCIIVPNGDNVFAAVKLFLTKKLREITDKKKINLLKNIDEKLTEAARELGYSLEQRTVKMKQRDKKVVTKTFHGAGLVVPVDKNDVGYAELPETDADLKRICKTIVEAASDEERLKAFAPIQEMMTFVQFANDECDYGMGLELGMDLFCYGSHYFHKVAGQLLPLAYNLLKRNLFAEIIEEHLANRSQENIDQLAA

human HPF1 K307S [3] = molecular target: T3, human HPF1 K307S (human, UniProt Q9NWY4 1-346, K307S); experiment: ITC; replicate 1
T3 sequence: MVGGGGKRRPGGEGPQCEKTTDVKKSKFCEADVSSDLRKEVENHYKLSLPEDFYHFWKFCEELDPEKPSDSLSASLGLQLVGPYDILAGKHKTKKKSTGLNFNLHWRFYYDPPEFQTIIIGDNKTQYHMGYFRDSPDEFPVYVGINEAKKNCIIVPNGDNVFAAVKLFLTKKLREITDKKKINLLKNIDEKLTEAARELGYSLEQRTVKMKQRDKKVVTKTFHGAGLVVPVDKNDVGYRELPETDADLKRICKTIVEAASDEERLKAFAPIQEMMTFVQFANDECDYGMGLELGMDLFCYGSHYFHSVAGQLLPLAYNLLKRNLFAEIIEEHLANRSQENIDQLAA

human HPF1 E138K [4] = molecular target: T4, human HPF1 E138K (human, UniProt Q9NWY4 1-346, E138K); experiment: ITC; replicate 1
T4 sequence: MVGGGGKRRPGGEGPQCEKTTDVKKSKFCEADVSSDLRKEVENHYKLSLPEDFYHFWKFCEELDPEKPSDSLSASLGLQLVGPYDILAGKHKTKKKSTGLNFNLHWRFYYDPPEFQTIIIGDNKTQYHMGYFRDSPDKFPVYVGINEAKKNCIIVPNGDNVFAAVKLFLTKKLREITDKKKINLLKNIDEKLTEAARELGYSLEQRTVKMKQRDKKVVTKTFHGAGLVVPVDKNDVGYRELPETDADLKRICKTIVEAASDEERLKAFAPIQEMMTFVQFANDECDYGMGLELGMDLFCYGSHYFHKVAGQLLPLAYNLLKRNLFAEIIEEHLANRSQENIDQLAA

human HPF1 F139S [5] = molecular target: T5, human HPF1 F139S (human, UniProt Q9NWY4 1-346, F139S); experiment: ITC; replicate 1
T5 sequence: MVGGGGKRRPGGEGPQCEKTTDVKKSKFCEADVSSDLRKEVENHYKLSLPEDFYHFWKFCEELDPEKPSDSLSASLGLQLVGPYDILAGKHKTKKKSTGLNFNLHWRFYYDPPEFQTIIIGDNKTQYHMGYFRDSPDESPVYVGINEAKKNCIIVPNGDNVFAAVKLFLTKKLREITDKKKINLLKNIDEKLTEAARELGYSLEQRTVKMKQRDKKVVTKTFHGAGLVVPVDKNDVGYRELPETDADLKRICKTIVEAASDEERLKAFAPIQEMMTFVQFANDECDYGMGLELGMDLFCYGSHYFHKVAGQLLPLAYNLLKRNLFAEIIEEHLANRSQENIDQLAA

human HPF1 K216E = molecular target: T6, human HPF1 K216E (human, UniProt Q9NWY4 1-346, K216E); experiment: ITC; replicate 2
T6 sequence: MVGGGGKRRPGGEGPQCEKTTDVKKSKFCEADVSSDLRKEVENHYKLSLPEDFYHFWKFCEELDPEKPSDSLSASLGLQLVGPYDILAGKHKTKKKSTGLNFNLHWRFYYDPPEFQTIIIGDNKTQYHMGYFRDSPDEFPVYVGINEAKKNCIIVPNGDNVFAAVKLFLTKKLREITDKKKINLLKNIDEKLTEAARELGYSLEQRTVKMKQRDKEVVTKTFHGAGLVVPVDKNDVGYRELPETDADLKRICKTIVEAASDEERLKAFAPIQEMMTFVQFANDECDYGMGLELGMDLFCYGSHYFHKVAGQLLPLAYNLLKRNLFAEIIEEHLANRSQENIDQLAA

human HPF1 E138K [6] = molecular target: T4, human HPF1 E138K; experiment: ITC; replicate 2
human HPF1 F139S [7] = molecular target: T5, human HPF1 F139S; experiment: ITC; replicate 2
human HPF1 F280A [8] = molecular target: T1, human HPF1 F280A; experiment: ITC; replicate 2
human HPF1 R239A [9] = molecular target: T2, human HPF1 R239A; experiment: ITC; replicate 2
human HPF1 K307S [10] = molecular target: T3, human HPF1 K307S; experiment: ITC; replicate 2
[11] = molecular target: B1; experiment: ITC; replicate 2
PARP1 D756A = PARP1 D756A (human, UniProt P09874 1-1014, D756A); experiment: ITC; in the presence of DNA

| Binder | Ka (human HPF1 F280A [1]) [M⁻¹] | Ka (human HPF1 R239A [2]) [M⁻¹] | Ka (human HPF1 K307S [3]) [M⁻¹] | Ka (human HPF1 E138K [4]) [M⁻¹] | Ka (human HPF1 F139S [5]) [M⁻¹] | Ka (human HPF1 K216E) [M⁻¹] | Ka (human HPF1 E138K [6]) [M⁻¹] | Ka (human HPF1 F139S [7]) [M⁻¹] | Ka (human HPF1 F280A [8]) [M⁻¹] | Ka (human HPF1 R239A [9]) [M⁻¹] | Ka (human HPF1 K307S [10]) [M⁻¹] | Ka [11] [M⁻¹] | Ka (PARP1 D756A) [M⁻¹] |
| --- | --- | --- | --- | --- | --- | --- | --- | --- | --- | --- | --- | --- | --- |
| B1 | 147000 | 432000 | 95700 | 617000 | 400000 | 725000 | 583000 | 440000 | 212000 | 402000 | 123000 | – | – |
| human HPF1 (histone PARylation factor 1), wild-type (natural protein) MVGGGGKRRPGGEGPQCEKTTDVKKSKFCEADVSSDLRKEVENHYKLSLPEDFYHFWKFCEELDPEKPSDSLSASLGLQLVGPYDILAGKHKTKKKSTGLNFNLHWRFYYDPPEFQTIIIGDNKTQYHMGYFRDSPDEFPVYVGINEAKKNCIIVPNGDNVFAAVKLFLTKKLREITDKKKINLLKNIDEKLTEAARELGYSLEQRTVKMKQRDKKVVTKTFHGAGLVVPVDKNDVGYRELPETDADLKRICKTIVEAASDEERLKAFAPIQEMMTFVQFANDECDYGMGLELGMDLFCYGSHYFHKVAGQLLPLAYNLLKRNLFAEIIEEHLANRSQENIDQLAA | – | – | – | – | – | – | – | – | – | – | – | 642000 | 333000 |
